Target: voltage-gated potassium channel Kv1.3 (UniProt P22001)
Sequence (P22001 whole entry): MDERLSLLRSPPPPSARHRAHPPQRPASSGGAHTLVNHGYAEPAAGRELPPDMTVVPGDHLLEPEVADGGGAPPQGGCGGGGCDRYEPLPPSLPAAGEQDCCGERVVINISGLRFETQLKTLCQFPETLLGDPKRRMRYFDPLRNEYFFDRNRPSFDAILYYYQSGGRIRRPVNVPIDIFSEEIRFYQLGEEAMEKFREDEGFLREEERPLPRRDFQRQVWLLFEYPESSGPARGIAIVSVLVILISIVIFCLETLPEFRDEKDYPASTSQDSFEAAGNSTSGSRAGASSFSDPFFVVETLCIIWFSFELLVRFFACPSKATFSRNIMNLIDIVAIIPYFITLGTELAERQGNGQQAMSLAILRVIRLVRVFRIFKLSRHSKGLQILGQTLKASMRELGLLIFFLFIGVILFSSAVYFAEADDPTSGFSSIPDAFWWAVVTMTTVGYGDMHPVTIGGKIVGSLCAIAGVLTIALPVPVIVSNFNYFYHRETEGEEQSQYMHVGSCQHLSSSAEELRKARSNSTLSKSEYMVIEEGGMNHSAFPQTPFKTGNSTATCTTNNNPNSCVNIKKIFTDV

Substance mCherry-Vm24 has a Kd from electrophysiological assays of 275 pM.

— PMC10975748
